Where two headings read alike, the source gives them in different places.
Columns and labels:
Assay in all cases: UV crosslinking
[1] = target: T1, DCCcore (MSL1-MSL2-MSL3-MOF) (Drosophila melanogaster, UniProt P50535;P50534;P50536;O02193 1-1039;1-773;1-512;1-827)
[2] = target: T2, MSL2 (Drosophila melanogaster, UniProt P50534 1-773)
T2 sequence: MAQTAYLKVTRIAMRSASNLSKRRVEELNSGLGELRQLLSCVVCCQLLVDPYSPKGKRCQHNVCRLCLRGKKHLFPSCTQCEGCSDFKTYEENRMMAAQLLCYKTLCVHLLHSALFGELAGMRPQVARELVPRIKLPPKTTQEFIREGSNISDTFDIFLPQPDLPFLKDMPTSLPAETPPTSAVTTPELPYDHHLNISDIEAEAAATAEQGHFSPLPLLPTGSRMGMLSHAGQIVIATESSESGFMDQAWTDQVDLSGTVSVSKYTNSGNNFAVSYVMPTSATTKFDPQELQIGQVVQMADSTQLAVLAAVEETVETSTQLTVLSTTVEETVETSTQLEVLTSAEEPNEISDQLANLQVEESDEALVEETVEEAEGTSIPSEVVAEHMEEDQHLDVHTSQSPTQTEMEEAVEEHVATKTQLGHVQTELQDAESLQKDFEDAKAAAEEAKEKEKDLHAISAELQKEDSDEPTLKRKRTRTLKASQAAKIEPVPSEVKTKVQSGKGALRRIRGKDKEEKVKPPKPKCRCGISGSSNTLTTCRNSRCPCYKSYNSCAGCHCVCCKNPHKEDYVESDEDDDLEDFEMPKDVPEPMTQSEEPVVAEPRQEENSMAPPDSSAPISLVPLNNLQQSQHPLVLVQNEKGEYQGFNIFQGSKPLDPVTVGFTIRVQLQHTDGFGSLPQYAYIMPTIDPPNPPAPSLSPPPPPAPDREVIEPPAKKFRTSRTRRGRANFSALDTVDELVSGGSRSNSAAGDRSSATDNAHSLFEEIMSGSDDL

[3] = target: T3, MSL1 (Drosophila melanogaster, UniProt P50535 1-1039)
T3 sequence: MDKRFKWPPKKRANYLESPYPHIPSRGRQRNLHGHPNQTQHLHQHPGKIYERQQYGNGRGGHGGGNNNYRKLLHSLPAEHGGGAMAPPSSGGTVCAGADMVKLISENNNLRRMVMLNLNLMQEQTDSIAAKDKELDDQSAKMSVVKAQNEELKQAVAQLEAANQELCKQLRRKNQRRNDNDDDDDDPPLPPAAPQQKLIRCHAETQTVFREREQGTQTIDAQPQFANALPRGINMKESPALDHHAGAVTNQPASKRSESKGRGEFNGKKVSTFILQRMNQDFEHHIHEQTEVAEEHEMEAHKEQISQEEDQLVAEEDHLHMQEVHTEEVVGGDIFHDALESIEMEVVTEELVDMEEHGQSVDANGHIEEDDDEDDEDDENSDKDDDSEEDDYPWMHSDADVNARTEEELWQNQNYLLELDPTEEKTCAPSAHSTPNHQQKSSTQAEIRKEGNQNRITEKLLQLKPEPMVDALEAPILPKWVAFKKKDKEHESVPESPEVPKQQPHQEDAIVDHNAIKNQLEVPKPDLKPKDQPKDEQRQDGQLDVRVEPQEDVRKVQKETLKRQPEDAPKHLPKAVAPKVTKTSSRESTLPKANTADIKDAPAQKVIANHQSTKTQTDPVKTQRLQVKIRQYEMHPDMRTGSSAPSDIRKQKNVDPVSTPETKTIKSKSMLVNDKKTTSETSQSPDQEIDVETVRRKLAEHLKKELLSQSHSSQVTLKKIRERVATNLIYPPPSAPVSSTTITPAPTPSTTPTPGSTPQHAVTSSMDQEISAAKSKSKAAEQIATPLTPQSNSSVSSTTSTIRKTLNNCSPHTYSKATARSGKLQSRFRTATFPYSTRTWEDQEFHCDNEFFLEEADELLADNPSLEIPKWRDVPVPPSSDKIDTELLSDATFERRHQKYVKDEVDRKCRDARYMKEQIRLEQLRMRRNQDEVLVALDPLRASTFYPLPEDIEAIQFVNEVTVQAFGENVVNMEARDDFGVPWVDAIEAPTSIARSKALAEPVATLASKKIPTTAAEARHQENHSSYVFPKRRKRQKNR

[4] = target: T1, DCCcore (MSL1-MSL2-MSL3-MOF); remark: listed apart in the source

T1 sequence (P50536 whole entry, chain 3 of 2): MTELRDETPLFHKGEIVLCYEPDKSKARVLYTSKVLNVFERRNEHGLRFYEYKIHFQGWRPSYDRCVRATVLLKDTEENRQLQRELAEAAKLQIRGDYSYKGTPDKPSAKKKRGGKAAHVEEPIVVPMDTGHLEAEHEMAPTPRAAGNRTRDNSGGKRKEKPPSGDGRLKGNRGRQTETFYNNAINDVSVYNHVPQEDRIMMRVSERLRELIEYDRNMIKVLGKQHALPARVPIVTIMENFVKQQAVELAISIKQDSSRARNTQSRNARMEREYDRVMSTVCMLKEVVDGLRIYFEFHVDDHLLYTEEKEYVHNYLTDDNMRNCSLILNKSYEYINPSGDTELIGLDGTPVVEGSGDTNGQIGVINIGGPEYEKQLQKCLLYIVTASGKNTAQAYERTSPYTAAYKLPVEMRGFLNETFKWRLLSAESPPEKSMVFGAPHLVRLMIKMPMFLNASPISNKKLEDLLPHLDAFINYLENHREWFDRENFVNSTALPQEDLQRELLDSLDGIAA
T1 sequence (O02193 whole entry, chain 4 of 2): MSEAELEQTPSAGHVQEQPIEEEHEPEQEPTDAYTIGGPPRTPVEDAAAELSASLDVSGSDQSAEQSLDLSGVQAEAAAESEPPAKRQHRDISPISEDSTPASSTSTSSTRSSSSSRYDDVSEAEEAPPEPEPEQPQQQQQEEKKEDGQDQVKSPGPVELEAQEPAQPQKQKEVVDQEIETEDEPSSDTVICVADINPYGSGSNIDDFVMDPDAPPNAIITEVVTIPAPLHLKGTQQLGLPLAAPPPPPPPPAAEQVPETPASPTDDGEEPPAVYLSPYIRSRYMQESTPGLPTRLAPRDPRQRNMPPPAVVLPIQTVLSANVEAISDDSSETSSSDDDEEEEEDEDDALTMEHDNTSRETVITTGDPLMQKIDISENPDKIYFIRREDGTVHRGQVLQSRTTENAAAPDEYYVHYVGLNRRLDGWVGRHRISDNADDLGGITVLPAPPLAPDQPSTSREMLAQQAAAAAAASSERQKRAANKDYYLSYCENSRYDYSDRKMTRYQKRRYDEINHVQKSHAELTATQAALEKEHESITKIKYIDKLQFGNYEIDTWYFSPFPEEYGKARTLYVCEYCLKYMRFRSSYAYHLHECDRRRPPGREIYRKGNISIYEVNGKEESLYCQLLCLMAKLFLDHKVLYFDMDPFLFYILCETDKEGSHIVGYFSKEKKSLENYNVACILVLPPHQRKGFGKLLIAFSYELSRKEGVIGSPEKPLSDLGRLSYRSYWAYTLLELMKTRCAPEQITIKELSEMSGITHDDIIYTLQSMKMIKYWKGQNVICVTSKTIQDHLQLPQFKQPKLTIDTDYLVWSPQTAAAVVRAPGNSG

Binder	binding result [1]	binding result [2]	binding result [3]	binding result [4]
AUUAAGCAAAUAUAUAUGCAUAUAU (structured_RNA) [roX2 SL7-Loop]	no binding	–	–	–
UGGGUAACGUUUUACGCGCCUU (structured_RNA) [roX2 SL7-3']	–	binds	binds	binds
